Test results reported in patent publication US20260022175A1 (Chugai, published 2026).
Where a chain is given by its changes, count along the chain named.

Assays:
Assay in all cases: SPR Biacore 8k+ 25C, antibody captured, FcγR analyte; mean
[1] = biological target: T1, cynomolgus monkey FcγRIIa1 extracellular domain with His tag (cynomolgus monkey)
T1 construct: also called cyFcγRIIa1
T1 chain: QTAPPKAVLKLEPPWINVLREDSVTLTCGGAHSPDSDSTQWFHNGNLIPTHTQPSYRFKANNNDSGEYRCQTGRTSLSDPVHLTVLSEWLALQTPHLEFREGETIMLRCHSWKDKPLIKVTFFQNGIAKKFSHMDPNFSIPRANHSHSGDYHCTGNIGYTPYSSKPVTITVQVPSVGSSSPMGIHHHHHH
Procedure: (§1) Here, Tremfya (Janssen Pharmaceutical K.K), which is an IgG1 antibody in which the L-chain is a X-chain, was also evaluated as a control. The binding activity was evaluated at 25° C. using as a running buffer 50 mM phosphate buffer, 150 mM NaCl, 0.05 w/v %-P20, pH7.4. As a molecule for ligand capture, CaptureSelect (trademark) Human Fab-lambda Kinetics Biotin Conjugate (ThermoFisher scientific) was immobilized onto a Series S Sensor chip SA sensor chip (Cytiva). An antibody solution prepared with the running buffer was allowed to interact with the SA sensor chip for capturing about 250 RU, or 500 RU, or about 1000 RU, of antibody. Then, hFcγRs and cyFcγRs diluted with the running buffer were allowed to bind to the captured antibodies. […] The chip was regenerated using 10 mM Glycine-HCl (pH 1.5), and measurements were performed by repeatedly capturing the antibodies. The binding activity of each antibody for each FcγR was evaluated by calculating the KD value using the Biacore Insight Evaluation Software with the Steady state model or 1:1 binding model.

[2] = biological target: T2, cynomolgus monkey FcγRIIb extracellular domain with His tag (cynomolgus monkey)
T2 construct: also called cyFcγRIIb
T2 chain: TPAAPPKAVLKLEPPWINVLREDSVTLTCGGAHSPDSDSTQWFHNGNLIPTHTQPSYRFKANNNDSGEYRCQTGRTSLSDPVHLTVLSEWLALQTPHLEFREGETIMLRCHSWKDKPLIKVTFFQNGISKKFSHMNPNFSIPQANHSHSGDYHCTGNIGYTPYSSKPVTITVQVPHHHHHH
Procedure: as §1

[3] = biological target: T3, cynomolgus monkey FcγRIIa2 extracellular domain with His tag (cynomolgus monkey)
T3 construct: also called cyFcγRIIa2
T3 chain: T1 chain with P95T, T121A, I127K, A128S, K130N, D135N, R142Q
Procedure: as §1

[4] = biological target: T4, cynomolgus monkey FcγRIa extracellular domain with His tag (cynomolgus monkey, UniProt P12314 16-288 (human entry))
T4 construct: also called cyFcγRIa
T4 chain: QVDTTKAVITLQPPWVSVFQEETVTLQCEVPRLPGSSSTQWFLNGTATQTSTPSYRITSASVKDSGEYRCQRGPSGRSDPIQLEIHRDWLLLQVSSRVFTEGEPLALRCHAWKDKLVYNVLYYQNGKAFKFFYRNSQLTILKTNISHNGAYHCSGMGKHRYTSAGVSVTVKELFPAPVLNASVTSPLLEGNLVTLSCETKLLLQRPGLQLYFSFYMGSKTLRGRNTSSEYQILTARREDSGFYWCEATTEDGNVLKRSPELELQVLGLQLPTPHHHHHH
Procedure: as §1

[5] = biological target: T5, cynomolgus monkey FcγRIIIa(R) extracellular domain with His tag (cynomolgus monkey, UniProt Q8SPW2 17-208)
T5 construct: also called cyFcγRIIIa(R)
T5 sequence (Q8SPW2 other isoform, or with tags, fused parts or gaps): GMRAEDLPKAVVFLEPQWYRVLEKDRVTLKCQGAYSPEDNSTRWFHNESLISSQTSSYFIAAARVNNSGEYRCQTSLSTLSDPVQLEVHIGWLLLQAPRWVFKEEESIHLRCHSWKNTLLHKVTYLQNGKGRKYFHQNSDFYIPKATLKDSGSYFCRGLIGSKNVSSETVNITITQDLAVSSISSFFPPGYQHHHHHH
Procedure: as §1

[6] = biological target: T6, cynomolgus monkey FcγRIIa3 extracellular domain with His tag (cynomolgus monkey)
T6 construct: also called cyFcγRIIa3
T6 chain: T1 chain with P95T, T121A, A128S, H133P, D135N
Procedure: as §1

[7] = biological target: T7, cynomolgus monkey FcγRIIIa(S) extracellular domain with His tag (cynomolgus monkey, UniProt Q8SPW2 21-206 at identity 1.00))
T7 construct: also called cyFcγRIIIa(S)
T7 chain: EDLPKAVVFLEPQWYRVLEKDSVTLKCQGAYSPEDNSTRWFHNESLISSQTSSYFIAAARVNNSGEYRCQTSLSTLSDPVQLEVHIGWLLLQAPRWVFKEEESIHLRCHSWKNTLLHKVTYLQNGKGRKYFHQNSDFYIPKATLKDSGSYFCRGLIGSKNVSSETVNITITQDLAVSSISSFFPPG
Procedure: as §1

[8] = biological target: T8, human FcγRIIa(R) extracellular domain with C-terminal His tag (human, UniProt P12318 34-217)
T8 construct: also called hFcγRIIa(R)
T8 chain: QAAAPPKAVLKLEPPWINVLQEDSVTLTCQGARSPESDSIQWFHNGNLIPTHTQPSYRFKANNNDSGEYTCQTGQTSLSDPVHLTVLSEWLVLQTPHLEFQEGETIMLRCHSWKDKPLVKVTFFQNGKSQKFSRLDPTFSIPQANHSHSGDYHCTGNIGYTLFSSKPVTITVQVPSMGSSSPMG
Procedure: as §1

[9] = biological target: T9, human FcγRIIb extracellular domain with C-terminal His tag (human, UniProt P31994 43-217)
T9 construct: also called hFcγRIIb
T9 sequence: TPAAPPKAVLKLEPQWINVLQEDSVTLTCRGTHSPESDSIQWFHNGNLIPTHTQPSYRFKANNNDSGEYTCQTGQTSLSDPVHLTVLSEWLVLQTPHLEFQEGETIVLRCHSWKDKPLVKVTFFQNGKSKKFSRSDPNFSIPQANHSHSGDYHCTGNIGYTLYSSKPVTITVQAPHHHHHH
Procedure: as §1

[10] = biological target: T10, human FcγRIIIa(V) extracellular domain with C-terminal His tag (human, UniProt P08637 17-208)
T10 construct: also called hFcγRIIIa(V)
T10 sequence (P08637 other isoform, or with tags, fused parts or gaps): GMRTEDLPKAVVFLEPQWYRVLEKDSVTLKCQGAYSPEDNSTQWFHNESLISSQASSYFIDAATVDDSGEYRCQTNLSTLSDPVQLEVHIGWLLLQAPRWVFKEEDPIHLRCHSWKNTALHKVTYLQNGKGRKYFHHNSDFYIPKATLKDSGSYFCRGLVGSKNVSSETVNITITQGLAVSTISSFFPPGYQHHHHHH
Procedure: as §1

[11] = biological target: T11, human FcγRIa extracellular domain with C-terminal His tag (human, UniProt P12314 16-288)
T11 construct: also called hFcγRIa
Procedure: as §1

[12] = biological target: T12, human FcγRIIIa(F) extracellular domain with C-terminal His tag (human, UniProt P08637 17-208)
T12 construct: also called hFcγRIIIa(F)
T12 sequence (P08637 other isoform, or with tags, fused parts or gaps): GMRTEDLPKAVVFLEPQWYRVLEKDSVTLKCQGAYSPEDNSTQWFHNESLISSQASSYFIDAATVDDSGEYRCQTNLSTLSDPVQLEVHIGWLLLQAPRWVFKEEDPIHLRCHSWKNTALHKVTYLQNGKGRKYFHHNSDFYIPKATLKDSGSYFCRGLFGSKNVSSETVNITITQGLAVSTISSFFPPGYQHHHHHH
Procedure: as §1

[13] = biological target: T13, human FcγRIIa(H) extracellular domain with C-terminal His tag (human, UniProt P12318 34-217)
T13 construct: also called hFcγRIIa(H)
T13 sequence: T8 chain with R134H
Procedure: as §1

Kd [1]: 540 nM | Kd [2]: 2520 nM | Kd [3]: 2320 nM | Kd [4]: 0.0106 nM | Kd [5]: 1.01 nM | Kd [6]: 5290 nM | Kd [7]: 0.933 nM | Kd [8]: 1790 nM | Kd [9]: 38800 nM | Kd [10]: 1.82 nM | Kd [11]: 0.0387 nM | Kd [12]: 4.13 nM | Kd [13]: 343 nM
B1: 04H1654-KT498/04L1610-lam1//04H1656-HT518/04L1610-lam1 (antibody, human IgG1, lambda)
heavy 1: QVQLVESGGGVVQPGGSLRLSCAASGFTFSSKTMNWVRQAPGKGLEWVSSISTQSHYIYYARSVRGRFTISRDNAKNSLYLQMNSLRAEDTAVYYCARYGKREDMLWVFDYWGQGTLVTVSSASTKGPSVFPLAPSSKSTSGGTAALGCLVKDYFPEPVTVSWNSGALTSGVHTFPAVLQSSGLYSLSSVVTVPSSSLGTQTYICNVNHKPSNTKVDKRVEPKSCDKTHTCPPCPAPEFQWGPMVFLFPPKPKDVLMISRTPEVTCVVVDVSDEEPEVKFNWYVDGVEVHNAKTKPREEQYNATYRVVSVLPVLHQDWLNGKEYKCKVSNKALPMPIEKTISKAKGQPREPQVYTLPPSRKEMTKNQVSLTCLVKGFYPSDIAVEWESNGQPENNYKTTPPVLDSDGSFFLYSKLTVDKSRWQQGNVFSCSVMHEALHNHYTQKSLSLSP
heavy 2: QVQLVESGGGVVQPGGSLRLSCAASGFTFSSKTMNWVRQAPGKGLEWVSSISTQSHYIYYAESVRGRFTISRDNAKNSLYLQMNSLRAEDTAVYYCARYGAREDMLWVFDYWGQGTLVTVSSASTKGPSVFPLAPSSKSTSGGTAALGCLVKDYFPEPVTVSWNSGALTSGVHTFPAVLQSSGLYSLSSVVTVPSSSLGTQTYICNVNHKPSNTKVDKRVEPKSCDKTHTCPPCPAPELLGGPSVFLFPPKPKDVLMISRTPEVTCVVVDVSHEEPEVKFNWYVDGVEVHNAKTKPREEQYNATYRVVSVLPVLHQDWLNGKEYKCKVSNDALPMPIEETISKAKGQPREPQVYTLPPSREEMTKNQVSLTCLVKGFYPSDIAVEWESNGQPENNYKTTPPVLDSDGSFFLYSKLTVDKSRWQQGNVFSCSVMHEALHNHYTQESLSLSP
light: QSALTQPPSASGSPGQSVTISCEGPSTGVGDYNWVHWYQQHPGKAPKLMIYFTSKKPSGVPDRFSGSKSGNTASLTVSGLQAEDEADYYCQTYAAPLGPMFGGGTKLTVLGQPKAAPSVTLFPPSSEELQANKATLVCLISDFYPGAVTVAWKADSSPVKAGVETTTPSKQSNNKYAASSYLSLTPEQWKSHRSYSCQVTHEGSTVEKTVAPTECS
notes: also called SW1610-ART12
